Measured values reported in patent US20090088376A1, “DENDRIMER BASED COMPOSITIONS AND METHODS OF USING THE SAME” (priority 2007, published 2009).

System: A431 cells
Assay: Binding of dendrimer-EGF conjugate by flow cytometry
Assay type: cell-based
Experimental: Cell culture and treatment. The cell lines were cultured in Dulbecco's Modified Eagle Medium (DMEM) supplemented with 10% fetal calf serum (FCS), 100 units/ml penicillin, and 100 μg/ml streptomycin. Cells were allowed to grow in a monolayer in tissue culture flasks incubated at 37° C. in a humidified atmosphere containing 5% CO2 and 95% air. Cells plated in 24-well plates (for flow cytometry), 35 mm dishes with glass cover slips in the bottom (for confocal microscopy) and 96 well plates (for ‘FACE’ and ‘XTT’ assays) were treated with the conjugate under the specified incubation conditions. Excess free EGF was added 30 min prior to the conjugates for blocking the binding of the latter. Competition assay with free EGF was conducted at 4° C. by simultaneously exposing the conjugate and free EGF.
Flow Cytometry and Confocal Microscopy. The FITC fluorescence was quantified on a f a BECKMAN-COULTER EPICS-XL MCL flow cytometer, and the data were analyzed using EXPO32 software (BECKMAN-COULTER, Miami, Fla.). The viable cells were gated, and the mean FL1-fluorescence of 10,000 cells was quantified. […] Cells were incubated with the conjugate in serum-free medium under the specified conditions and analyzed using an OLYMPUS FLUOVIEW 500 laser scanning confocal microscope. FITC fluorescence was excited with a 488 nm blue argon laser and emission was measured through a 505-525 nm barrier filter. […]

B1: EGF-FI (conjugate, UniProt P01133 23-1207, looked up)
Pro-epidermal growth factor: PQHWSCPEGTLAGNGNSTCVGPAPFLIFSHGNSIFRIDTEGTNYEQLVVDAGVSVIMDFHYNEKRIYWVDLERQLLQRVFLNGSRQERVCNIEKNVSGMAINWINEEVIWSNQQEGIITVTDMKGNNSHILLSALKYPANVAVDPVERFIFWSSEVAGSLYRADLDGVGVKALLETSEKITAVSLDVLDKRLFWIQYNREGSNSLICSCDYDGGSVHISKHPTQHNLFAMSLFGDRIFYSTWKMKTIWIANKHTGKDMVRINLHSSFVPLGELKVVHPLAQPKAEDDTWEPEQKLCKLRKGNCSSTVCGQDLQSHLCMCAEGYALSRDRKYCEDVNECAFWNHGCTLGCKNTPGSYYCTCPVGFVLLPDGKRCHQLVSCPRNVSECSHDCVLTSEGPLCFCPEGSVLERDGKTCSGCSSPDNGGCSQLCVPLSPVSWECDCFPGYDLQLDEKSCAASGPQPFLLFANSQDIRHMHFDGTDYGTLLSQQMGMVYALDHDPVENKIYFAHTALKWIERANMDGSQRERLIEEGVDVPEGLAVDWIGRRFYWTDRGKSLIGRSDLNGKRSKIITKENISQPRGIAVHPMAKRLFWTDTGINPRIESSSLQGLGRLVIASSDLIWPSGITIDFLTDKLYWCDAKQSVIEMANLDGSKRRRLTQNDVGHPFAVAVFEDYVWFSDWAMPSVMRVNKRTGKDRVRLQGSMLKPSSLVVVHPLAKPGADPCLYQNGGCEHICKKRLGTAWCSCREGFMKASDGKTCLALDGHQLLAGGEVDLKNQVTPLDILSKTRVSEDNITESQHMLVAEIMVSDQDDCAPVGCSMYARCISEGEDATCQCLKGFAGDGKLCSDIDECEMGVPVCPPASSKCINTEGGYVCRCSEGYQGDGIHCLDIDECQLGEHSCGENASCTNTEGGYTCMCAGRLSEPGLICPDSTPPPHLREDDHHYSVRNSDSECPLSHDGYCLHDGVCMYIEALDKYACNCVVGYIGERCQYRDLKWWELRHAGHGQQQKVIVVAVCVVVLVMLLLLSLWGAHYYRTQKLLSKNPKNPYEESSRDVRSRRPADTEDGMSSCPQPWFVVIKEHQDLKNGGQPVAGEDGQAADGSMQPTSWRQEPQLCGMGTEQGCWIPVSSDKGSCPQVMERSFHMPSYGTQTLEGGVEKPHSLLSANPLWQQRALDPPHQMELTQ
modifications: Pro-epidermal growth factor fluorescein label
- IC50 (100 nM conjugate, 1 h at 4° C., value listed under the conjugate displaced, read-out: concentration of free EGF giving 50% inhibition of binding of the labeled conjugate): 60 nM
- apparent KA (double reciprocal binding plots of normalized fluorescence): 15 nM
